Laboratory results: patent publication US20260098095A1
Changes are numbered by the printed parent chain.

B1: Molecule B (bispecific antibody, V domains shown)
VH 1: YPQLVESGGGLVKPGGSLRLSCAARYPFTRLDMSWVRQAPGKGLEWVGSISPKGGSTYYNDNVLGRFTISRDNSKNTLYLQMNSLRAEDTAVYYCARDWGFFDNWGQGTLVTVSS
VL 1: AIQMTQSPSSLSASVGDRVTITCRASQSISNYLAWYQQKPGKAPKLLIYNASHPEYDVPSRFSGSGSGTDFTLTISSLQPEDFATYYCQQYSSHPYTFGQGTKLEIK
VH 2: not shown
VL 2: QAVVTQEPSLTVSPGGTVTLTCGSSTGAVTTSNYANWVQEKPGQAFRGLIGGTNKRAPGTPARFSGSLLGGKAALTLSGAQPEDEAEYYCALWYSNLWVFGGGTKLTVL
B2: Molecule A (bispecific antibody, V domains shown)
VH 1: B1 VH 1 with P2V, R25P, Y26L, R30G, N104L
VL 1: B1 VL 1 with N50D, S52N, H53A, P54H, Y56N
VH 2: not shown
VL 2: B1 VL 2

Key:
[1] = target: AGFG2
[2] = target: DPYSL2
[3] = target: TRANK1
Chain of TRANK1 (beta, as listed by the source limits assumed, chain 3 of 2, other chains not shown): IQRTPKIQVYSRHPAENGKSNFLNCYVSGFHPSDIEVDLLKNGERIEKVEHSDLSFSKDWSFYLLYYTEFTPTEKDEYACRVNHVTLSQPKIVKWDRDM

Chain of AGFG2 (beta, as listed by the source limits assumed, chain 3 of 2, other chains not shown): as above
Chain of DPYSL2 (beta, as listed by the source limits assumed, chain 3 of 2, other chains not shown): as above

Row | Binder | % of MAGE-A4 signal, Jurkat-NFAT; grey (>2%) [1] | % of MAGE-A4 signal, Jurkat-NFAT; grey (>2%) [2] | % of MAGE-A4 signal, Jurkat-NFAT; grey (>2%) [3]
1 | B1 | 13.3% | 5.19% | 7.67%
2 | B2 | 86.5% | – | 4.56%
